Measurements as given in US20240207311A1, “TUMOR INFILTRATING LYMPHOCYTES THERAPY” (Alethia Biotherapeutics Inc., priority 2021, published 2024).
“Also recorded” adds a separate entry of the source.

Key:
Format in all cases: in vivo, Balb/c mice
[1] = system: 4T1 mouse mammary carcinoma cells; experiment: Number of metastatic lung nodules in 4T1-implanted animals (Example 2); conditions: monotherapy IP for 5 weeks (Group 2 docetaxel 10 mg/kg weekly; Group 5 AB-16B5 twice weekly); counted Day 37
Method: Five groups, each consisting of 10 female Balb/c mice were assigned to this study (see Table 1 below). All animals received subcutaneous implantation of 4T1 mouse mammary carcinoma cells in the 4th inguinal mammary gland. Treatment was initiated on the day of implantation (defined as Day 1). Animals from Group 1 (Gr. 1) received IP treatment of saline vehicle control twice a week for the duration of the study. Animals from Group 2 (Gr. 2) received 10 mg/kg of docetaxel weekly for five weeks by IP administration. Animals from Group 3 (Gr. 3) received 10 mg/kg of docetaxel weekly for two weeks and 10 mg/kg of AB-16B5, twice weekly for five weeks. Animals from Group 4 (Gr. 4) received 10 mg/kg of docetaxel weekly and 5 mg/kg of 16B5 twice weekly each over the course of a five weeks treatment. Animals from Group 5 (Gr. 5) received AB-16B5 twice weekly for five weeks. On Day 36, the primary tumors were excised and on Day 37, the animals were sacrificed and the number of grossly visible metastatic nodules on the surface of the lungs was counted.

4T1 primary tumors = experiment: CD45+ immune cells purified from excised 4T1 primary tumors (Example 2); conditions: monotherapy (Group 2 docetaxel; Group 5 AB-16B5); primary tumors excised at Day 16
Excerpt: The primary tumors excised at Day 16 post implantation, were processed with collagenase and hyaluronidase and immune cells were purified by positive selection using magnetic latex beads coated with an anti-CD45 antibody. The purified cells were transferred into small petri dishes containing culture medium supplemented with IL2 and IL7 to perform phenotypic analyses.

4T1 lung metastases = experiment: Immunohistochemistry of lung metastases in 4T1-implanted mice (Example 1); conditions: 10 mg/kg IP thrice a week
Excerpt: Balb/c mice were orthotopically implanted with 5×10^5 4T1 cells in the 4th mammary fat pad. Animals received IP saline treatment thrice weekly. The primary tumor was surgically removed at Day 16 post-implantation. The animals were sacrificed at Day 36 and the lungs were excised. Tissues were fixed in paraformaldehyde and processed for paraffin embedding. Tissue sections were probed with anti-mouse CD3, anti-mouse CD8 and anti-mouse B220 antibodies. […] Results presented in FIG. 1 indicate that the 4T1 lung metastases create an immune cold microenvironment which prevents the infiltration of B and T lymphocytes in tumors. Delineated regions indicate that CD3 and CD8 T lymphocytes are restricted in the tumor margin as a consequence of EMT.
Animals bearing 4T1 tumors were treated with the AB-16B5 antibody (murine 16B5) thrice a week IP at 10 mg/kg. The primary tumor was surgically removed at Day 16 post-implantation. The animals were sacrificed at Day 36 and the lungs were excised. Tissues were fixed in paraformaldehyde and processed for paraffin embedding. Tissue sections were probed with anti-mouse CD3, anti-mouse CD8 and anti-mouse B220 antibodies.

Question: With `CC(=O)O[C@@]12CO[C@@H]1C[C@H](O)[C@@]1(C)C(=O)[C@H](O)C3=C(C)[C@@H](OC(=O)[C@H](O)[C@@H](NC(=O)OC(C)(C)C)c4ccccc4)C[C@@](O)([C@@H](OC(=O)c4ccccc4)[C@H]21)C3(C)C` [docetaxel] as the molecule, how does the metastatic lung nodules [1] read?
Answer: as many metastatic lung nodules as the saline control group; also recorded: relatively ineffective

Question: And the “CD45+ immune cells in primary tumors” value (4T1 primary tumors)?
Answer: very few CD45+ were present

B1: AB-16B5: anti-clusterin antibody, murine 16B5 (VL SEQ ID NO:7, VH SEQ ID NO:8), used in the mouse studies (antibody, V domains shown)
VH: EVQLQQSGAELVKPGASVRLSCTTSGFNIKDIYMHWVKQRPEQGLEWIGRIDPAYGNTKYDPKFQGKATITADTSSNTAYLQLSSLTSEDTAVYYCARRYDTAMDYWGQGTSVTVSS
VL: DIVMSQSPSSLAVSAGEKVTMSCKSSQSLLNSRTRKNYLAWYQQKPGQSPKLLIYWASTRESGVPDRFTGSGSGTDFTLTISSVQAEDLAVYYCKQSYNLWTFGGGTKLEFK
modifications: Murine 16B5 VH; Murine 16B5 VL
Question: How did the “plasmocytes penetration in tumors” value (4T1 lung metastases; Day 36) turn out when B1 was run?
Answer: evidence of plasmocytes penetration

Question: And the “T lymphocyte infiltration of lung metastases” value (4T1 lung metastases; Day 36, anti-CD3, anti-CD8 staining)?
Answer: densely infiltrated with CD3 and CD8 T cells

Question: What about the “lung metastases (number and size)” value (4T1 lung metastases; lungs excised Day 36, FIG. 2) of the same molecule?
Answer: fewer and much smaller lung metastases

Question: And the metastatic lung nodules [1]?
Answer: less metastatic lung nodules than the saline-control-treated mice

Question: And the “CD45+ immune cells in primary tumors” value (4T1 primary tumors)?
Answer: more immune cells
